The values that follow come from the Immune Epitope Database (IEDB).

This assay concerns the target HLA-A*02:01. Kind of assay: IEDB peptide-MHC binding, purified MHC/competitive/radioactivity; filed as Kd, often an IC50 or EC50 that approximates it; ≥ and ≤ were set here for values at or beyond the usual limits of such assays.
Where [1] appears, read: source organism: Hepatitis B virus subtype ayw.

On to PLERFAELV, for which the dissociation constant (Kd) (source organism: Homo sapiens) was at least 50 µM. For CLTFGRETV, the Kd under setting [1] was at least 50 µM. Consider PLTSIISAV, for which the Kd (source organism: Homo sapiens) was found to be 3.33 µM. With DLVVSYVNV, the Kd (source organism: Hepatitis B virus) was at least 50 µM. LLYQTFGRKL: under setting [1], the Kd was at least 50 µM. On to FLCILLLCLI, for which the Kd (source organism: Hepatitis B virus adw/Indonesia/PIDW420) worked out at 2.38 µM. As to SLQLVFGIEL, the dissociation constant Kd (source organism: Homo sapiens) stood at 0.102 µM. On the same count and under the same terms, for DLFGIWSKV the value was at least 25 µM; for ALSRKVAELV, at least 50 µM. For the sequence PLSYQHFRRL, the Kd under setting [1] was at least 50 µM.

Turning to ELRHYSDSV, the Kd (source organism: human papillomavirus 18) is at least 50 µM. Take ELHPDKWTV: where the note is “source organism: HIV-1 M:B_MN”, the Kd was at least 50 µM. On the same count and under the same terms, for HLEGKVILV the value was 8.33 µM. Consider HLSLRGLPV, for which, under setting [1], the Kd came to 12.5 µM.

As for NMGLKFRQL, the Kd under setting [1] was at least 50 µM.

Take NMGLKFRQLL: the Kd under setting [1] was at least 50 µM. On the same count and under the same terms, next, ILCWGELMTL: 0.026 µM. Consider RLCVQSTHV, for which the Kd (source organism: Human papillomavirus 16) came to 16.7 µM. In the case of DLESEFQAAL, under “source organism: Homo sapiens”, the Kd is at least 50 µM. As for GLRDLAVAV, under “source organism: Hepatitis C virus (isolate Taiwan)”, the Kd is 1.47 µM. Regarding RMRGTFSAPL, under setting [1], the Kd amounted to 0.046 µM.

Regarding KLPGLLSRDL, the Kd (source organism: Homo sapiens) was at least 50 µM.
